Test results: the supplement of paper PMC10567573

B1: LOXL2 (parent)
chain: HISSCKLGPQVSLDPMKNVTCENG

Variants of: B1
Assay: protein stability index of a GFP-peptide fusion (GPS, HEK-293T) (PSI 1-6); higher = more stable
Details: c terminus: a fixed tail appended
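Note: lentivirally expressed fusions sorted by FACS into six bins by GFP to DsRed ratio, PSI derived from sequencing read proportions per bin multiplied by bin number.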

| Variant | protein stability index |
| --- | --- |
| HISSCKLGPQVSLDPMYNVTCENG [K17Y] | 3.44 |
| HISSCKLGPQVSLDPMENVTCENG [K17E] | 4.28 |
| HISSCKLGPQVSLDPMFNVTCENG [K17F] | 2.97 |
| HISSCKLGPQVSLDPMMNVTCENG [K17M] | 3.22 |
| HISSCKLGPQVSLDPMVNVTCENG [K17V] | 3.67 |
| HISSCKLGPQVSLDPMANVTCENG [K17A] | 3.98 |
| HISSCKLGPQVSLDPMINVTCENG [K17I] | 3.3 |
| HISSCKLGPQVSLDPMGNVTCENG [K17G] | 3.45 |
| HISSCKLGPQVSLDPMQNVTCENG [K17Q] | 3.81 |
| HISSCKLGPQVSLDPMWNVTCENG [K17W] | 3.05 |
| HISSCKLGPQVSLDPMHNVTCENG [K17H] | 4.03 |
| HISSCKLGPQVSLDPMKNVTCKNG [E22K] | 3.89 |
| HISSCKLGPQVSLDPMKNVTCFNG [E22F] | 2.46 |
| HISSCKLGPQVSLDPMKNVTCSNG [E22S] | 3.5 |
| HISSCKLGPQVSLDPMKNVTCNNG [E22N] | 3.35 |
| HISSCKLGPQVSLDPMKNVTCMNG [E22M] | 2.9 |
| HISSCKLGPQVSLDPMKNVTCING [E22I] | 2.92 |
| HISSCKLGPQVSLDPMKNVTCDNG [E22D] | 3.82 |
| HISSCKLGPQVSLDPMKNVTCPNG [E22P] | 3.47 |
| HISSCKLGPQVSLDPMKNVTCLNG [E22L] | 2.58 |
| HISSCKLGPQTSLDPMKNVTCENG [V11T] | 4.07 |
| HISSCKLGPQFSLDPMKNVTCENG [V11F] | 3.56 |
| HISSCKLGPQPSLDPMKNVTCENG [V11P] | 4.34 |
| HISSCKLGPQNSLDPMKNVTCENG [V11N] | 4.33 |

| Variant | protein stability index |
| --- | --- |
| HISSCKLGPQESLDPMKNVTCENG [V11E] | 4.58 |
| HISSCKLGPQMSLDPMKNVTCENG [V11M] | 4.15 |
| HISSCKLGPQQSLDPMKNVTCENG [V11Q] | 4.4 |
| HISSCKLGPQSSLDPMKNVTCENG [V11S] | 4.09 |
| HISSCKLGPQLSLDPMKNVTCENG [V11L] | 3.72 |
| HISSCKLMPQVSLDPMKNVTCENG [G8M] | 3.95 |
| HISSCKLIPQVSLDPMKNVTCENG [G8I] | 3.86 |
| HISSCKLLPQVSLDPMKNVTCENG [G8L] | 4.02 |
| HISSCKLVPQVSLDPMKNVTCENG [G8V] | 3.62 |
| HISSCKLHPQVSLDPMKNVTCENG [G8H] | 3.63 |
| HISSCKLQPQVSLDPMKNVTCENG [G8Q] | 3.7 |
| HISSCKLGPQVSLDPMKNVTCEND [G24D] | 4.01 |
| HISSCKLGPQVSLDPMKNVTCENH [G24H] | 3.94 |
| HISSCKLGPQVSLDPMKNVTCENY [G24Y] | 3.29 |
| HISSCKLGPQVSLDPMKNVTCENQ [G24Q] | 4 |
| HISSCKLGLQVSLDPMKNVTCENG [P9L] | 2.84 |
| HISSCKLGYQVSLDPMKNVTCENG [P9Y] | 2.83 |
| HISSCKLGVQVSLDPMKNVTCENG [P9V] | 3.23 |
| HISSCKLGWQVSLDPMKNVTCENG [P9W] | 2.2 |
| HISSCKLGEQVSLDPMKNVTCENG [P9E] | 4.36 |
| HISSCKLGFQVSLDPMKNVTCENG [P9F] | 2.65 |
| HISSCKLGDQVSLDPMKNVTCENG [P9D] | 4.05 |
| HISSCKLGTQVSLDPMKNVTCENG [P9T] | 3.95 |
| HISSCKLGAQVSLDPMKNVTCENG [P9A] | 3.85 |

| Variant | protein stability index |
| --- | --- |
| HISSCKLGKQVSLDPMKNVTCENG [P9K] | 4.25 |
| HIASCKLGPQVSLDPMKNVTCENG [S3A] | 3.69 |
| HIGSCKLGPQVSLDPMKNVTCENG [S3G] | 4.2 |
| HIMSCKLGPQVSLDPMKNVTCENG [S3M] | 3.3 |
| HIKSCKLGPQVSLDPMKNVTCENG [S3K] | 4.01 |
| HIVSCKLGPQVSLDPMKNVTCENG [S3V] | 3.12 |
| HITSCKLGPQVSLDPMKNVTCENG [S3T] | 3.59 |
| HIFSCKLGPQVSLDPMKNVTCENG [S3F] | 2.94 |
| HINSCKLGPQVSLDPMKNVTCENG [S3N] | 4.24 |
| HISSCKLGPQVSWDPMKNVTCENG [L13W] | 3.58 |
| HISSCKLGPQVSTDPMKNVTCENG [L13T] | 4.61 |
| HISSCKLGPQVSRDPMKNVTCENG [L13R] | 3.8 |
| HISSCKLGPQVSSDPMKNVTCENG [L13S] | 4.45 |
| HISSCKLGPQVSCDPMKNVTCENG [L13C] | 3.68 |
| HISSCKLGPQVSEDPMKNVTCENG [L13E] | 4.58 |
| HISSCKLGPQVSFDPMKNVTCENG [L13F] | 3.52 |
| HISSCKLGPQVSVDPMKNVTCENG [L13V] | 4.06 |
| HISSCKLGPQVSMDPMKNVTCENG [L13M] | 4.24 |
| HISSCKLGPQVSHDPMKNVTCENG [L13H] | 4.34 |
| HISSCKLGPQVSIDPMKNVTCENG [L13I] | 4.1 |
| HISSCKLGPQVSLDPMKNVTCEWG [N23W] | 2.21 |
| HISSCKLGPQVSLDPMKNVTCEAG [N23A] | 3.53 |
| HISSCKLGPQVSLDPMKNVTCETG [N23T] | 3.77 |
| HISSCKLGPQVSLDPMKNVTCEVG [N23V] | 3.53 |

| Variant | protein stability index |
| --- | --- |
| HISSCKLGPQVSLDPMKNVTCESG [N23S] | 3.91 |
| HISSCKLGPQVSLDPMKNVTCEPG [N23P] | 3.63 |
| HISSCKLGPQVSLDPMKNVTCELG [N23L] | 3.1 |
| HISSCILGPQVSLDPMKNVTCENG [K6I] | 3.57 |
| HISSCQLGPQVSLDPMKNVTCENG [K6Q] | 4.04 |
| HISSCGLGPQVSLDPMKNVTCENG [K6G] | 3.97 |
| HISSCMLGPQVSLDPMKNVTCENG [K6M] | 4.15 |
| HISSCDLGPQVSLDPMKNVTCENG [K6D] | 4.9 |
| HISSCPLGPQVSLDPMKNVTCENG [K6P] | 4.48 |
| HISSCLLGPQVSLDPMKNVTCENG [K6L] | 4.22 |
| HISSCKLGPQVSLDPMKGVTCENG [N18G] | 3.81 |
| HISSCKLGPQVSLDPMKPVTCENG [N18P] | 3.92 |
| HISSCKLGPQVSLDPMKTVTCENG [N18T] | 3.89 |
| HISSCKLGPQVSLDPMKDVTCENG [N18D] | 4.34 |
| HISSCKLGPQVSLDPMKEVTCENG [N18E] | 3.82 |
| HISSCKLGPQVSLDPMKIVTCENG [N18I] | 3.4 |
| HISSCKLGPQVSLDPMKNVLCENG [T20L] | 4.37 |
| HISSCKLGPQVSLDPMKNVRCENG [T20R] | 3.88 |
| HISSCKLGPQVSLDPMKNVQCENG [T20Q] | 4.02 |
| HISSCKLGPQVSLDPMKNVYCENG [T20Y] | 3.58 |
| HISSCKLGPQVSLDPMKNVVCENG [T20V] | 3.83 |
| HISSCKLGPQVSLDPMKNVMCENG [T20M] | 3.64 |
